Test results taken from the supplement of paper PMC9116672.
± gives the standard deviation of the averaged measurements or the uncertainty stated by the source.

Columns and labels:
[1] = duplex melting temperature (HRM, EvaGreen); higher = more stable duplex
Experimental: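 Listed DNA strand annealed 1:1 with its complementary strand (95 °C 5 min, 0.1 °C/s to 20 °C). Melted in 1x NNE buffer (500 mM NaCl, 10 mM Na2HPO4, 1 mM EDTA, pH 7.0) with 1x EvaGreen on a LightCycler96 (37 to 97 °C, 0.1 °C/s). Tm is the peak of -dF/dT at the stated total duplex concentration; 4 replicates are averaged. PS oligos are non-stereospecific (Rp/Sp mixtures).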

[2] = duplex formation free energy ΔG50 (Van't Hoff fit of HRM Tm); higher = less stable duplex; conditions: temperature for dG: 50 °C, NaCl: 500 mM (unadjusted)
Experimental: (§1)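 Duplex of the listed DNA strand with its complement, in 1x NNE buffer (500 mM NaCl, pH 7.0) with 1x EvaGreen. ΔH and ΔS come from a Van't Hoff linear fit of 1/Tm against ln(CT/4) over 1-20 uM, using HRM Tm values.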

[3] = duplex formation enthalpy ΔH (Van't Hoff fit of HRM Tm); higher = less exothermic duplex formation; conditions: temperature for dG: 50 °C, NaCl: 500 mM (unadjusted)
Experimental: as §1

[4] = duplex formation entropy ΔS (Van't Hoff fit of HRM Tm); higher = smaller entropy loss on duplex formation; conditions: temperature for dG: 50 °C, NaCl: 500 mM (unadjusted)
Experimental: as §1

[5] = duplex concentration 1 µM, backbone: PS-PS (both strands fully phosphorothioate)
[6] = duplex concentration 2.5 µM, backbone: PO-PO (both strands phosphodiester DNA)
[7] = duplex concentration 2.5 µM, backbone: PS-PS (both strands fully phosphorothioate)
[8] = duplex concentration 5 µM, backbone: PO-PO (both strands phosphodiester DNA)
[9] = duplex concentration 5 µM, backbone: PS-PO (listed strand fully phosphorothioate, complement phosphodiester)
[10] = duplex concentration 5 µM, backbone: PS-PS (both strands fully phosphorothioate)
[11] = duplex concentration 7.5 µM, backbone: PO-PO (both strands phosphodiester DNA)
[12] = duplex concentration 7.5 µM, backbone: PS-PO (listed strand fully phosphorothioate, complement phosphodiester)
[13] = duplex concentration 7.5 µM, backbone: PS-PS (both strands fully phosphorothioate)
[14] = duplex concentration 10 µM, backbone: PO-PO (both strands phosphodiester DNA)
[15] = duplex concentration 10 µM, backbone: PS-PO (listed strand fully phosphorothioate, complement phosphodiester)
[16] = duplex concentration 10 µM, backbone: PS-PS (both strands fully phosphorothioate)
[17] = duplex concentration 15 µM, backbone: PO-PO (both strands phosphodiester DNA)
[18] = duplex concentration 15 µM, backbone: PS-PO (listed strand fully phosphorothioate, complement phosphodiester)
[19] = duplex concentration 15 µM, backbone: PS-PS (both strands fully phosphorothioate)
[20] = duplex concentration 20 µM, backbone: PO-PO (both strands phosphodiester DNA)
[21] = duplex concentration 20 µM, backbone: PS-PO (listed strand fully phosphorothioate, complement phosphodiester)
[22] = duplex concentration 20 µM, backbone: PS-PS (both strands fully phosphorothioate)
[23] = backbone: PO-PO (both strands phosphodiester DNA)
[24] = backbone: PS-PO (listed strand fully phosphorothioate, complement phosphodiester)
[25] = backbone: PS-PS (both strands fully phosphorothioate)

Question: For AGCACGGTGGTACAACA, which duplex melting temperature ([1]; duplex concentration 1 µM, backbone: PS-PO (listed strand fully phosphorothioate, complement phosphodiester)) is on record?
Answer: The duplex melting temperature was 60.27 ± 0.38 °C.

Question: What about the duplex melting temperature [1, 5] of the same sequence?
Answer: The duplex melting temperature was 50.09 ± 0.18 °C.

Question: And the duplex melting temperature [1, 6]?
Answer: Its duplex melting temperature is 67.58 ± 0.38 °C.

Question: And the duplex melting temperature ([1]; duplex concentration 2.5 µM, backbone: PS-PO (listed strand fully phosphorothioate, complement phosphodiester))?
Answer: Its duplex melting temperature is 63.2 ± 0.2 °C.

Question: What about the duplex melting temperature [1, 7] of the same sequence?
Answer: The duplex melting temperature was 53.82 ± 0.069 °C.

Question: And the duplex melting temperature [1, 8]?
Answer: Its duplex melting temperature is 69.83 ± 0.28 °C.

Question: What about the duplex melting temperature [1, 9] of the same sequence?
Answer: Its duplex melting temperature is 65.28 ± 0.1 °C.

Question: What about the duplex melting temperature [1, 10] of the same sequence?
Answer: The duplex melting temperature was 56.17 ± 0.085 °C.

Question: What about the duplex melting temperature [1, 11] of the same sequence?
Answer: Its duplex melting temperature is 71.17 ± 0.15 °C.

Question: And the duplex melting temperature [1, 12]?
Answer: Its duplex melting temperature is 66.25 ± 0.082 °C.

Question: And the duplex melting temperature [1, 13]?
Answer: Its duplex melting temperature is 57.1 ± 0.12 °C.

Question: What about the duplex melting temperature [1, 14] of the same sequence?
Answer: Its duplex melting temperature is 72.2 ± 0.18 °C.

Question: What about the duplex melting temperature [1, 15] of the same sequence?
Answer: The duplex melting temperature was 67.06 ± 0.081 °C.

Question: And the duplex melting temperature [1, 16]?
Answer: The duplex melting temperature was 57.92 ± 0.08 °C.

Question: What about the duplex melting temperature [1, 17] of the same sequence?
Answer: The duplex melting temperature was 73.4 ± 0.13 °C.

Question: And the duplex melting temperature [1, 18]?
Answer: Its duplex melting temperature is 68.18 ± 0.11 °C.

Question: And the duplex melting temperature [1, 19]?
Answer: The duplex melting temperature was 59.07 ± 0.11 °C.

Question: What about the duplex melting temperature [1, 20] of the same sequence?
Answer: Its duplex melting temperature is 74.39 ± 0.17 °C.

Question: And the duplex melting temperature [1, 21]?
Answer: The duplex melting temperature was 69.05 ± 0.15 °C.

Question: And the duplex melting temperature [1, 22]?
Answer: Its duplex melting temperature is 59.74 ± 0.13 °C.

Question: And the “duplex formation free energy ΔG50” value [2, 23]?
Answer: Its value is -12.8 ± 0.17 kcal/mol.

Question: What about the “duplex formation free energy ΔG50” value [2, 24] of the same sequence?
Answer: Its value is -12.23 ± 0.093 kcal/mol.

Question: What about the “duplex formation free energy ΔG50” value [2, 25] of the same sequence?
Answer: The value was -9.892 ± 0.075 kcal/mol.

Question: What about the “duplex formation enthalpy ΔH” value [3, 23] of the same sequence?
Answer: Its value is -71.3 ± 2.6 kcal/mol.

Question: And the “duplex formation enthalpy ΔH” value [3, 24]?
Answer: The value was -78.6 ± 2 kcal/mol.

Question: What about the “duplex formation enthalpy ΔH” value [3, 25] of the same sequence?
Answer: Its value is -67.6 ± 3.5 kcal/mol.

Question: And the “duplex formation entropy ΔS” value [4, 23]?
Answer: Its value is -181 ± 7.5 cal/mol/K.

Question: And the “duplex formation entropy ΔS” value [4, 24]?
Answer: The value was -205 ± 5.8 cal/mol/K.

Question: What about the “duplex formation entropy ΔS” value [4, 25] of the same sequence?
Answer: Its value is -179 ± 11 cal/mol/K.

Question: Which duplex melting temperature [1, 5] does the source give for CGGCGCGCTG here?
Answer: The duplex melting temperature was 44.8 ± 1.1 °C.

Question: What about the duplex melting temperature [1, 6] of the same sequence?
Answer: The duplex melting temperature was 66.4 °C.

Question: What about the duplex melting temperature [1, 7] of the same sequence?
Answer: Its duplex melting temperature is 47 ± 1.1 °C.

Question: And the duplex melting temperature [1, 8]?
Answer: The duplex melting temperature was 67.7 ± 0.9 °C.

Question: And the duplex melting temperature [1, 9]?
Answer: The duplex melting temperature was 64.9 ± 1.3 °C.

Question: What about the duplex melting temperature [1, 10] of the same sequence?
Answer: Its duplex melting temperature is 50 ± 1.2 °C.

Question: What about the duplex melting temperature [1, 11] of the same sequence?
Answer: The duplex melting temperature was 69.25 ± 0.52 °C.

Question: What about the duplex melting temperature [1, 12] of the same sequence?
Answer: Its duplex melting temperature is 66.2 ± 0.84 °C.

Question: And the duplex melting temperature [1, 14]?
Answer: Its duplex melting temperature is 70.35 ± 0.13 °C.

Question: And the duplex melting temperature [1, 15]?
Answer: Its duplex melting temperature is 67.43 ± 0.12 °C.

Question: What about the duplex melting temperature [1, 17] of the same sequence?
Answer: The duplex melting temperature was 70.84 ± 0.39 °C.

Question: What about the duplex melting temperature [1, 18] of the same sequence?
Answer: The duplex melting temperature was 68.41 ± 0.079 °C.

Question: What about the duplex melting temperature [1, 20] of the same sequence?
Answer: Its duplex melting temperature is 72.07 ± 0.61 °C.

Question: And the duplex melting temperature [1, 21]?
Answer: Its duplex melting temperature is 69.27 ± 0.21 °C.

Question: With GGACGGCGTT as the sequence, how does the duplex melting temperature [1, 5] read?
Answer: Its duplex melting temperature is 39.971 ± 0.0066 °C.

Question: What about the duplex melting temperature [1, 7] of the same sequence?
Answer: Its duplex melting temperature is 43 ± 0.68 °C.

Question: What about the duplex melting temperature [1, 10] of the same sequence?
Answer: The duplex melting temperature was 47.59 ± 0.14 °C.

Question: What about the duplex melting temperature [1, 13] of the same sequence?
Answer: The duplex melting temperature was 50.3 ± 1.2 °C.

Question: And the duplex melting temperature [1, 14]?
Answer: The duplex melting temperature was 63.65 ± 0.51 °C.

Question: What about the duplex melting temperature [1, 16] of the same sequence?
Answer: The duplex melting temperature was 50.8 ± 1.5 °C.

Question: What about the duplex melting temperature [1, 17] of the same sequence?
Answer: The duplex melting temperature was 64.94 ± 0.51 °C.

Question: What about the duplex melting temperature [1, 18] of the same sequence?
Answer: The duplex melting temperature was 61.1 ± 0.49 °C.

Question: What about the duplex melting temperature [1, 19] of the same sequence?
Answer: The duplex melting temperature was 53.7 ± 0.47 °C.

Question: What about the duplex melting temperature [1, 20] of the same sequence?
Answer: The duplex melting temperature was 65.94 ± 0.2 °C.

Question: And the duplex melting temperature [1, 21]?
Answer: The duplex melting temperature was 62.78 ± 0.33 °C.

Question: And the duplex melting temperature [1, 22]?
Answer: Its duplex melting temperature is 53.7 °C.
